Publication PMC4752221, “Nuclear Export of Pre-Ribosomal Subunits Requires Dbp5, but Not as an RNA-Helicase as for mRNA Export” (PLoS ONE, 2016)

Target: T1, His-Mtr2+Mex67 heterodimer (S. cerevisiae, UniProt Q99257 1-599; P34232 1-184)
T1 construct: Mex67 of S. cerevisiae, co-expressed with His-Mtr2; Mtr2 of S. cerevisiae, His-tagged; also called His-Mtr2 and Mex67; Mex67-Mtr2; source: E. coli BL21 DE3, co-expressed, purified (Ni-NTA agarose)
T1 sequence (looked up) 1: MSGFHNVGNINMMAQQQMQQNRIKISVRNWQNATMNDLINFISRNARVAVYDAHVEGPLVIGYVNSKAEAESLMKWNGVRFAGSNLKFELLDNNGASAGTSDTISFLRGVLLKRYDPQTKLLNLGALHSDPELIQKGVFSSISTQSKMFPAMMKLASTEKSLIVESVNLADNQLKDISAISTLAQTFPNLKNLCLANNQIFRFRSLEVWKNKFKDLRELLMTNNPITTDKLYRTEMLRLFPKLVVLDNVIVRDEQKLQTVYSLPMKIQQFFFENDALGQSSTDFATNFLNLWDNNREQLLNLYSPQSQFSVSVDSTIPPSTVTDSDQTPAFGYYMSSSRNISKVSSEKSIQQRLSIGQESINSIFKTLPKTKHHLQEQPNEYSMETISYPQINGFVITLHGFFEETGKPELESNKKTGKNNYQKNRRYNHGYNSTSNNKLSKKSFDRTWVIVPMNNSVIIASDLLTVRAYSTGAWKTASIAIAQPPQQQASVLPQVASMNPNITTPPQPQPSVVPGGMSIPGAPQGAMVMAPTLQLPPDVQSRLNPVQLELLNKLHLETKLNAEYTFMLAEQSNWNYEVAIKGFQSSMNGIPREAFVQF
T1 sequence (looked up) 2: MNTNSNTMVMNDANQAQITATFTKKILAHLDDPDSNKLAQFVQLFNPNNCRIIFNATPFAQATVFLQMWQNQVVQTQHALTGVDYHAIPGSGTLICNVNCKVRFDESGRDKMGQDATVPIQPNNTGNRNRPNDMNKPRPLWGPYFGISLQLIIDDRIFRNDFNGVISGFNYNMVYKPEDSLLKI
Assay: pull-down; 100 μg purified GST-Dbp5 (mixed with bacterial lysate) held on Glutathione Sepharose 4B beads, washed, then 28 μg purified His-Mtr2+Mex67 added, 1 h at 4°C; 20 mM HEPES pH7.5, 100 mM NaCl, 4 mM MgCl2, 10% Glycerol, 0.1% NP-40, 1 mM DTT; with or without 1 mM ATP and 0.2 mg/ml RNase A (binding increased by ATP, not influenced by RNase A); Western blot and Coomassie
Details: both partners purified

B1: GST-Dbp5 (natural protein, S. cerevisiae, UniProt P20449 1-482, looked up)
chain: MSDTKRDPADLLASLKIDNEKEDTSEVSTKETVKSQPEKTADSIKPAEKLVPKVEEKKTKQEDSNLISSEYEVKVKLADIQADPNSPLYSAKSFDELGLAPELLKGIYAMKFQKPSKIQERALPLLLHNPPRNMIAQSQSGTGKTAAFSLTMLTRVNPEDASPQAICLAPSRELARQTLEVVQEMGKFTKITSQLIVPDSFEKNKQINAQVIVGTPGTVLDLMRRKLMQLQKIKIFVLDEADNMLDQQGLGDQCIRVKRFLPKDTQLVLFSATFADAVRQYAKKIVPNANTLELQTNEVNVDAIKQLYMDCKNEADKFDVLTELYGLMTIGSSIIFVATKKTANVLYGKLKSEGHEVSILHGDLQTQERDRLIDDFREGRSKVLITTNVLARGIDIPTVSMVVNYDLPTLANGQADPATYIHRIGRTGRFGRKGVAISFVHDKNSFNILSAIQKYFGDIEMTRVPTDDWDEVEKIVKKVLKD
notes: Dbp5 (Rat8) of S. cerevisiae, GST-tagged, DBP5 in a pGEX backbone; also called recombinant GST-tagged Dbp5; source: E. coli Rosetta 2, purified (GSTrap 4B Glutathione Sepharose)
B1: binds.
